T1: hPD-1 peptide No. 12 (TDKLAAFPED) (human)
T1 construct: also called PD1 peptide 12; peptide 12
T1 peptide: TDKLAAFPED


Tests used:
[1] = biological target: Purified human PD1 extracellular domain produced in E. coli fused to Fc (Ray Biotech) (human) (UniProt Q15116); assay: blocking ELISA; E. coli hPD1 ECD-Fc coated, antibody at 20 ug/ml, competitor ligand biotinylated deglycosylated mPD-1 Fc
[2] = biological target: T1, hPD-1 peptide No. 12 (TDKLAAFPED); assay: ELISA on hPD-1 peptide array

Sequence of Purified human PD1 extracellular domain produced in E. coli fused to Fc (Ray Biotech) (human) (Q15116 25-170): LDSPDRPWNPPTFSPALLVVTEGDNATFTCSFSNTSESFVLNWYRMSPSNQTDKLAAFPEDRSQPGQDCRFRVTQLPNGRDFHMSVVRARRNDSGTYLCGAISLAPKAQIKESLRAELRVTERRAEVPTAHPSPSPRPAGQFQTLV

| Molecule | binding remaining, % of unblocked controls (% of unblocked controls) [1] | binding result [2] |
| --- | --- | --- |
| mab12 (LS-C131333, LS Bio) (antibody) | 86 | – |
| IMT200 (antibody, V domains shown, Monoclonal raised against non-glycosylated His-tagged hPD-1 and detected with anti-mouse IgG-HRP; also called monoclonal antibody IMT200; anti-PD-1 mAb IMT200) VH: QVQLQQSGPELVKPGASVKISCKASGFAFSGSWMNWMKQRPGKGLEWIGRIYPGDGDTNYNGKSKGKATLTADTSSSTAYMQLSSLTSEDSAVYFCTRSTTILADYWGQGTTLTVSS VL: DIQMTQTTSSLSASLGDRVTISCRASQDIANYLNWYQQKPDGTVKLLIYYTSRKYSGVPSRFSGSGSGTDYSLTISNLDQEDIATYFCQQGKTLPWTFGGGTKLEIK | – | binds |

Reference: patent US20210363255A1 (TRUEBINDING, published 2021)
